# Data published in US5852187A, “Molecular cloning of the ovine pituitary growth hormone releasing hormone receptor” (priority 1996, dated 1998).
# Where “and” joins values, the source holds several entries; their conditions need not be identical. Identical values can stand only once. Entries after “also recorded” stand apart in the source; their conditions may differ. Like-named read-outs stand apart in the source and are kept apart here. Where no end group is shown, it is not given here. [ ]: non-standard residue; d: D form. The star is where a group is joined. Nle = CCCC[C@H](N)C(=O)O; 125I = [125I]*
# How the values were obtained:
# GHRH receptor (GHRH-R) = assay: 125I-GHRHa binding assay in crude anterior pituitary membrane pellets; parameters: species or system ovine; conditions: for competition for the 125I-GHRHa binding site: 100 nM competing peptide; for displacement of GHRH in ovine pituitary: at 500 nM
# Experimental: Specific binding is defined as the difference in the binding seen with 20 pM iodinated analog alone and binding of the analog in the presence of 10 nM non-iodinated GHRHa.
# All steps were performed at 4° C. Frozen ovine or bovine anterior pituitaries (ovine: approximately 1 gm/pituitary obtained from Dr. Ian Clarke, Melbourne, Australia; bovine: approximately 2.5 gm/pituitary special handling from Pel-Freez, of Rogers, Ark.) were washed of blood, cleaned of connective tissue and homogenized (using a Dounce homogenizer) in 50 mM HEPES buffer, 100 mM NaCl, 10 mM EDTA, 0.1 μM EGTA, pH 7.4 with 0.5 mM PMSF (phenyl methyl sulfonyl fluoride), 10 μg/ml leupeptin, 10 μg/ml pepstatin A, and 200 U/ml (units/ml) aprotinin. This buffer is used to remove endogenous GTP which might be bound to G proteins and to restore high affinity binding. The homogenate was spun at top speed in a microfuge and the supernatant discarded. The upper (membrane) layer of the pellet was then gently resuspended in binding buffer containing 50 mM Tris buffer, 5 mM EGTA, 5 mM MgCl2, 50 μg/ml alamethicin, 30 μg/ml bacitracin and other protease inhibitors as above.
# 1/50 pituitary equivalent per tube was incubated in binding buffer with approximately 100,000 counts of iodinated probe in a volume of 500 μl at room temperature for 1 hour. The total counts delivered and the percent of counts bound for each tube was determined with 3 to 6 replicates per experimental condition. Saturation binding profiles were analyzed with the computer program Ligand which performs a statistically weighted least squares fit to the exact ligand binding equation in nontransformed coordinates.
# GHRH-R (55 kDa band) = assay: Photoaffinity cross-linking / photoprobe binding in pituitary membrane pellets (gamma counting, SDS-PAGE autoradiography); parameters: species or system ovine
# Experimental: Photoprobe binding in ovine pituitary membrane pellets was determined by γ-counting and UV induced cross-linking was examined by autoradiography of sodium dodecylsulfate polyacrylamide electrophoresis (SDS-PAGE) gels. ^125 I-GHRHa -ANB-NOS probe bound with an affinity of about one nanomole, nM (compared to about 160 picomole, pM, for GHRHa).
# Photoprobe binding to membranes was evaluated with crude membrane binding assay and then analyzed further by SDS-PAGE electrophoresis to identify the binding sites. Photoprobes were incubated in the dark, photolysed for 10 minutes with a long wave (366 nm) UV lamp, and then the samples were pelleted. The pellets were counted and then extracted by boiling directly in SDS sample buffer (total SDS extracts). Alternatively, the labeled pellets were extracted in a mild detergent solution (5 mM CHAPS) centrifuged, and the chloroform/methanol concentrated supernatants denatured with SDS buffer (CHAPS extracts). These samples were then electrophoresed in SDS gels and autoradiographed.
# [1] = molecular target: T1, GHRH-R encoded by HAP 7 cDNA (Homo sapiens, UniProt Q02643); assay: Iodinated GHRH binding to COS cell membranes transfected with pCDM8 containing HAP 7 cDNA; conditions: for effect on binding of iodinated GHRH: 100 nM peptide, HAP transfected COS cells or membranes
# T1 construct: expressed in transfected cells; host or cells: Cos-1 cells (membranes), pCDM8 vector
# T1 sequence (Q02643 23-423): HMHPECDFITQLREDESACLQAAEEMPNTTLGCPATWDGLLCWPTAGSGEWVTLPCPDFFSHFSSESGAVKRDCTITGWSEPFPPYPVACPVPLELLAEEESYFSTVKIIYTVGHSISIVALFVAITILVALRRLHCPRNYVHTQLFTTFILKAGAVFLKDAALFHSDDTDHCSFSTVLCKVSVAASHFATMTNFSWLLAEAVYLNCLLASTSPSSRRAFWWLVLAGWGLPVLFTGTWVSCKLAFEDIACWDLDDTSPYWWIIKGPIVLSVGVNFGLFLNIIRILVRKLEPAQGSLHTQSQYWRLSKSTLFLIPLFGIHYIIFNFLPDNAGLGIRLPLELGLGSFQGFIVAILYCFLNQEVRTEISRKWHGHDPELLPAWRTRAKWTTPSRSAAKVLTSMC
# Experimental: Cos-1 cells were transfected with the vector formed by splicing pCDM8 and HAP cDNA, and Cos-1 cell membranes were prepared 72 hours subsequently. Cos-1 cells were transfected using 10 μg of plasmid DNA per 6×10^5 cells in a 100-mm dish using the DEAE-dextran method described by Cullen. […] COS cell cultures were transfected in parallel with pCDM8 containing a cDNA encoding the rat AT1 angiotensin II receptor.
# [2] = molecular target: T2, secretin and VIP receptors (Homo sapiens, UniProt P47872); conditions: at 10 μM; cited from earlier work
# T2 construct: host or cells: human pancreas tissue
# [3] = molecular target: human GHRH receptor encoded by HAP 7.3 cDNA (human); assay: competition with iodinated GHRH analog, membranes of COS cells transfected with HAP 7 (FIG. 16)
# [4] = molecular target: ovine pituitary growth hormone releasing hormone receptor (ovine); assay: displacement of GHRH and its analogs, ovine anterior pituitary tissue
# [5] = molecular target: bovine pituitary GHRH receptor (bovine) (UniProt Q9TUJ0); assay: displacement of GHRH and its analogs, bovine anterior pituitary tissue
# [6] = molecular target: ovine pituitary growth hormone releasing hormone receptor (ovine); assay: saturation binding analysed with the program Ligand, crude pituitary membrane pellets
# [7] = molecular target: ovine pituitary growth hormone releasing hormone receptor (ovine); assay: binding and displacement of iodinated GHRH analog, ovine pituitary membranes (FIG. 17)
# [8] = molecular target: ovine pituitary growth hormone releasing hormone receptor (ovine); assay: saturation binding with increasing unlabeled GHRHa, crude pituitary membrane pellets (FIG. 2)
# [9] = molecular target: ovine pituitary growth hormone releasing hormone receptor (ovine); assay: saturation binding analysed with the program Ligand, crude pituitary membrane pellets (FIG. 2)
# [10] = molecular target: pituitary GHRH receptor (ovine or bovine, not said which at the place); assay: charcoal-dextran binding assay on pituitary membrane preparations solubilized in CHAPS without prebound ligand; the ligand is not named
# [11] = molecular target: dibiotinylated GHRHa (human) (UniProt P01286); assay: binding of iodinated biotinylated GHRHa forms to immobilized streptavidin, through the biotin group
# [12] = molecular target: monobiotinylated GHRHa (human) (UniProt P01286); assay: as above
# T2 sequence (P47872 23-440): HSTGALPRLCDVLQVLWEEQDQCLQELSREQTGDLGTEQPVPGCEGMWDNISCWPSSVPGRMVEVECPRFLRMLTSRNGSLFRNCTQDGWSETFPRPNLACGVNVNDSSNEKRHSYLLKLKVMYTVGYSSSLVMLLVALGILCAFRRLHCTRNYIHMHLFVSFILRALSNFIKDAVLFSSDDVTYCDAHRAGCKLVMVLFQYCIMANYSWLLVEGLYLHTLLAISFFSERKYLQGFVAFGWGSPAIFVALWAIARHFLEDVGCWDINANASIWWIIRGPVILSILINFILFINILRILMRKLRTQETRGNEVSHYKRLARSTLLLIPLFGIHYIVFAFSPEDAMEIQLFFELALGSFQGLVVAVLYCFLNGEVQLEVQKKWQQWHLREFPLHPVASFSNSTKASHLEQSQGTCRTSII
compound,measurement,setting,value
O[C@H](CS)[C@H](O)CS (racemic) [dithiothreitol],effect on specific binding in the GHRH assay,GHRH receptor (GHRH-R); preincubation with 1 mM,completely eliminated
Nc1nc2c(ncn2[C@@H]2O[C@H](COP(=O)(O)OP(=O)(O)OP(O)(O)=S)[C@@H](O)[C@H]2O)c(=O)[nH]1 [GTPγS],displacement of both photoprobes from membrane pellets,GHRH-R (55 kDa band); 50 μM GTPγS,partially displaced
"CC[C@H](C)[C@H](NC(=O)CNC(=O)[C@H](CC(=O)O)NC(=O)[C@H](CO)NC(=O)[C@@H](N)Cc1c[nH]cn1)C(=O)N[C@@H](Cc1ccccc1)C(=O)N[C@H](C(=O)N[C@@H](CC(=O)O)C(=O)N[C@@H](CO)C(=O)N[C@@H](Cc1ccc(O)cc1)C(=O)N[C@@H](CO)C(=O)N[C@@H](CCCNC(=N)N)C(=O)N[C@@H](Cc1ccc(O)cc1)C(=O)N[C@@H](CCCNC(=N)N)C(=O)N[C@@H](CCCCN)C(=O)N[C@@H](CCC(N)=O)C(=O)N[C@@H](CCSC)C(=O)N[C@@H](C)C(=O)N[C@H](C(=O)N[C@@H](CCCCN)C(=O)N[C@@H](CCCCN)C(=O)N[C@@H](Cc1ccc(O)cc1)C(=O)N[C@@H](CC(C)C)C(=O)N[C@@H](C)C(=O)N[C@@H](C)C(=O)N[C@H](C(=O)N[C@@H](CC(C)C)C(=O)NCC(=O)N[C@@H](CCCCN)C(=O)N[C@@H](CCCNC(=N)N)C(=O)N[C@@H](Cc1ccc(O)cc1)C(=O)N[C@@H](CCCCN)C(=O)N[C@@H](CCC(N)=O)C(=O)N[C@@H](CCCNC(=N)N)C(=O)N[C@H](C(=O)N[C@@H](CCCCN)C(=O)N[C@@H](CC(N)=O)C(=O)N[C@@H](CCCCN)C(N)=O)C(C)C)C(C)C)C(C)C)[C@@H](C)O [PACAP, pituitary adenylate cyclase activating peptide]",competition for the 125I-GHRHa binding site,GHRH receptor (GHRH-R),no competition; also recorded: did not compete
same,displacement of GHRH in ovine pituitary,GHRH receptor (GHRH-R),significant displacement
C[C@H](N)C(=O)NCC(=O)N[C@H]1CSSC[C@@H](C(=O)O)NC(=O)[C@H](CO)NC(=O)[C@H]([C@@H](C)O)NC(=O)[C@H](Cc2ccccc2)NC(=O)[C@H]([C@@H](C)O)NC(=O)[C@H](CCCCN)NC(=O)[C@H](Cc2c[nH]c3ccccc23)NC(=O)[C@H](Cc2ccccc2)NC(=O)[C@H](Cc2ccccc2)NC(=O)[C@H](CC(N)=O)NC(=O)[C@H](CCCCN)NC1=O [somatostatin],effect on binding of iodinated GHRH,[1],unaffected
GHRH(1-29)-NH2,inhibition of 125I-secretin binding,[2],20%
GHRH: growth hormone releasing hormone; the competitor in FIG. 17 is GHRHa,Kd,"GHRH receptor (GHRH-R); ovine pituitary membranes, displacement data of FIG. 17, read-out: KD for GHRH binding in pituitary",0.2 nM
"His^1, ^125 I-Tyr^10,Nle^27 human GHRH(1-29)NH2",binding of radioligand to HAP cDNA transfected COS cell membranes,[1]; not seen in angiotensin receptor cDNA transfected COS cells,"specific, high-affinity binding"
PACAP (pituitary adenylate cyclase activating peptide),Ki,[3],30 nM
"PHM: competing peptide of the VIP family (HADGVFTSDFSKLLGQLSAKKYLESLM; ends and bridges not checked; UniProt P01282 81-107, looked up)",effect on binding of iodinated GHRH,[1],unaffected
"[His1, Nle27]-GHRH-(1-32)-NH2 (from UniProt P01286) (peptide)",fold lower displacing concentration than VIP or PACAP,[4],500 fold and 1000 fold
same,fold lower displacing concentration than VIP or PACAP,[5],500 fold and 1000 fold
same,Kd,[6],0.158 nM
same,Kd,[7],0.2 nM
same,Kd,[8],0.16 nM
same,Kd,[9],0.15 nM
same,Kd,[10],500 nM
"[His 1, Nle27, Biotin-Lys4 1 ]-GHRH-(1-41)-NH2 [GHRHb]",receptor binding affinity compared to GHRHa,GHRH receptor (GHRH-R),comparable to GHRHa
"[His^1, Nle^27 ]-GHRH-(1-32)-NH2 [GHRHa]",Kd,"GHRH receptor (GHRH-R); crude ovine pituitary membranes, program Ligand, read-out: Kd, saturation binding to a single high affinity site",0.158 nM and ~0.16 nM
same,displacement of both photoprobes from membrane pellets,GHRH-R (55 kDa band); 10 nM GHRHa,totally displaced
same,effect on photo-cross-linked 55 kDa band,"GHRH-R (55 kDa band); 10 nM GHRHa, 125I-GHRHa-ANB-NOS probe",completely eliminated
"^125 I-GHRHa -ANB-NOS: GHRHa coupled to N-5-azido-2-nitrobenzoyloxysuccinimide at lysine 12 or 21, then iodinated; photoprobe (YADAIFTNSY(125I)RKVLGQLSARKLLQDI[Nle]SRQQG-NH2; also: N-5-azido-2-nitrobenzoyl (ANB-NOS) on lysine 12 or 21)",affinity of photoprobe binding,"GHRH-R (55 kDa band); ovine pituitary membrane pellets, gamma-counting",about one
"^125 I-GHRHa: radioiodinated GHRHa probe, monoiodinated and HPLC purified (YADAIFTNSY(125I)RKVLGQLSARKLLQDI[Nle]SRQQG-NH2)",comparison with commercially available iodinated human GHRH,GHRH receptor (GHRH-R),slightly better specific binding
calcitonin,effect on binding of iodinated GHRH,[1],unaffected
immobilized streptavidin (from UniProt P22629) (tool reagent),percent of product bound,[11],> 90%
same,percent of product bound,[12],> 90%
"monobiotinylated GHRHa: GHRHa biotinylated at lysine 12 or 21 with NHS-LC-Biotin, mono form resolved on HPLC (YADAIFTNSY(iodo)RKVLGQLSARKLLQDI[Nle]SRQQG-NH2; also: NHS-LC-Biotin on one of lysines 12 and 21)",receptor binding affinity compared to GHRHa,GHRH receptor (GHRH-R),two-fold reduced
parathyroid hormone,effect on binding of iodinated GHRH,[1],unaffected
secretin,effect on binding of iodinated GHRH,[1],unaffected
vasoactive intestinal peptide [VIP],competition for the 125I-GHRHa binding site,GHRH receptor (GHRH-R),no competition; also recorded: did not compete
same,displacement of GHRH in ovine pituitary,GHRH receptor (GHRH-R),not
same,effect on photo-cross-linked 55 kDa band,GHRH-R (55 kDa band); 100 nM VIP,unaffected
same,effect on binding of iodinated GHRH,[1],unaffected; also recorded: no effect
same,inhibition of 125I-secretin binding,[2],20%
